Laboratory results from the supplement of paper PMC12667976.
± gives the standard error.

B1: library; numbered along this chain (parent)
chain: MATDAALRRLLRLHRTEIAVAVDSAFPLLHALADHDVVPEDKFQETLHLKEKEGCPQAFHALLSWLLTQDSTAILDFWRVLFKDYNLERYGRLQPILDSFPKDVDLSQPRKGRKPPAVPKALVPPPRLPTKRKASEEARAAAPAALTPRGTASPGSQLKAKPPKKPESSAEQQRLPLGNGIQTMSASVQRAVAMSSGDVPGARGAVEGILIQQVFESGGSKKCIQVGGEFYTPSKFEDSGSGKNKARSSSGPKPLVRAKGAQGAAPGGGEARLGQQGSVPAPLALPSDPQLHQKNEDECAVCRDGGELICCDGCPRAFHLACLSPPLREIPSGTWRCSSCLQATVQEVQPRAEEPRPQEPPVETPLPPGLRSAGEEVRGPPGEPLAGMDTTLVYKHLPAPPSAAPLPGLDSSALHPLLCVGPEGQQNLAPGARCGVCGDGTDVLRCTHCAAAFHWRCHFPAGTSRPGTGLRCRSCSGDVTPAPVEGVLAPSPARLAPGPAKDDTASHEPALHRDDLESLLSEHTFDGILQWAIQSMARPAAPFPS

Variants of: B1
Assay: AIRE transcriptional activation functional score (insulin promoter-GFP; nonsense median 0, synonymous median 1) (normalised score); higher = higher AIRE activity (more reporter activation)
Settings: with insulin promoter-GFP reporter in HEK293
Experimental: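 Deep mutational scan of full-length human AIRE (codon-optimized cDNA, DT-POPCode NNN libraries over three regions) integrated at a Bxb1 landing pad in HEK293 cells carrying an insulin core promoter-GFP reporter at a Flp-In site. Cells were sorted for the top 10% GFP about 14 days after transfection. Variant frequency log-ratios (select vs non-select, TileSeq) were rescaled so that the nonsense median is 0 and the synonymous median is 1, then averaged over biological replicates.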

AIRE transcriptional activation functional score, by site and new letter:
L106: G -0.428 ± 0.48, I -1.62 ± 0.095, K 0.511 ± 0.29, M 0.0877 ± 0.2, N 0.233 ± 0.22, P -1.47 ± 0.87, Q -0.722 ± 0.74, R 0.112 ± 0.35, S -1.04 ± 1.1, T 0.979 ± 0.18, V 0.581 ± 0.31, W 0.739 ± 0.14, Y 1.27 ± 0.37
S107: A 1.04 ± 0.27, C 1.12 ± 0.22, D 0.707 ± 0.52, E 0.777 ± 0.38, F 0.789 ± 0.42, G 0.704 ± 0.72, H 1.33 ± 0.1, I 1.02 ± 0.21, K 0.75 ± 0.073, L 1.05 ± 0.81, M 1.27 ± 0.4, N 0.000996 ± 0.21, P 0.096 ± 0.85, Q 0.12 ± 0.51, R 1.25 ± 0.7, T 0.785 ± 0.34, V 1 ± 0.57, W 1.49 ± 0.037, Y 0.891 ± 0.32
Q108: A 0.176 ± 0.28, C 0.53 ± 0.28, D 2.03 ± 0.31, E 1.66 ± 0.33, F 0.53 ± 0.066, G 0.482 ± 0.68, H -0.231 ± 0.16, I -0.272 ± 0.29, K 0.479 ± 0.44, L 0.0593 ± 0.35, M 2.4 ± 0.11, N 0.625 ± 0.28, P 0.669 ± 0.36, R 0.951 ± 0.67, S 0.618 ± 0.61, T 1.35 ± 0.6, V 0.8 ± 0.33, W 0.796 ± 0.087, Y 1.24 ± 0.12
P109: A 0.959 ± 0.96, C 0.656 ± 0.81, D 0.988 ± 0.12, E 0.161 ± 0.073, F 1.16 ± 0.068, G 0.279 ± 0.24, H 1.28 ± 0.19, I 0.666 ± 0.43, K 0.0515 ± 0.12, L 0.821 ± 0.42, M 2.55 ± 0.077, N -1.94 ± 0.83, Q 0.797 ± 0.078, R 0.676 ± 0.53, S 1.1 ± 0.75, T 1.54 ± 0.29, V 0.635 ± 0.4, W 0.0143 ± 0.096, Y 0.732 ± 0.35
R110: A 1.41 ± 0.049, C 0.426 ± 0.55, D 2.5 ± 0.21, E 1.09 ± 0.46, F 0.927 ± 0.37, G 1.34 ± 0.43, I 1.21 ± 0.57, K 1.25 ± 0.57, L 1.44 ± 0.48, M 0.295 ± 0.11, N 0.62 ± 0.23, P 0.621 ± 0.078, Q 0.31 ± 0.32, S 1.01 ± 0.43, T 0.97 ± 0.15, V 1.21 ± 0.39, W 1.5 ± 0.21, Y 1.61 ± 0.24
K111: A 1.84 ± 0.04, C 1.44 ± 0.27, D -0.0433 ± 0.099, E 0.792 ± 0.35, F 0.696 ± 0.48, G 0.901 ± 0.57, H 0.607 ± 0.25, I 1.36 ± 0.14, L 1.65 ± 0.63, M -0.763 ± 0.21, N 1.36 ± 0.24, Q -0.0716 ± 0.43, R 0.805 ± 0.34, S 1.18 ± 0.35, T 0.947 ± 0.58, V 1.37 ± 0.51, W 0.591 ± 0.065, Y 1.29 ± 0.15
G112: A 1.49 ± 0.71, C 0.924 ± 0.17, D 1.13 ± 0.21, E 1.23 ± 0.084, F 1.03 ± 0.43, H 0.912 ± 0.48, I 1.08 ± 0.67, K 0.268 ± 0.48, L 1.31 ± 0.58, M 0.488 ± 0.49, N 0.726 ± 0.29, P 1.12 ± 0.67, Q 1.37 ± 0.17, R 0.278 ± 0.5, S 0.851 ± 0.57, T 1.31 ± 0.75, V 0.878 ± 0.38, W 1.45 ± 0.18, Y 0.893 ± 0.066
R113: A 0.951 ± 0.44, C 1.3 ± 0.1, D 0.648 ± 0.2, E 0.975 ± 0.22, F 1.12 ± 0.14, G 0.801 ± 0.29, H 1.08 ± 0.67, I 1.46 ± 0.3, K 1.18 ± 0.31, L 0.951 ± 0.3, M 0.565 ± 0.038, N 1.68 ± 0.77, P 0.537 ± 0.78, Q 1.18 ± 0.28, S 1.02 ± 0.33, T 0.935 ± 0.28, V 0.537 ± 0.49, W 0.668 ± 0.047, Y 0.831 ± 0.23
K114: A -0.00452 ± 0.042, C 1.06 ± 0.095, D 0.131 ± 0.23, E 1.46 ± 0.18, F 0.817 ± 0.29, G 0.427 ± 0.71, H 0.207 ± 0.11, I 1.03 ± 0.35, L 1.03 ± 0.43, M 0.913 ± 0.028, N 0.632 ± 0.21, P 0.1 ± 0.84, Q 0.342 ± 0.43, R 0.793 ± 0.29, S 0.787 ± 0.21, T 1.19 ± 0.25, V 0.691 ± 0.86, W 1.32 ± 0.14, Y 1.51 ± 0.4
P115: A 0.798 ± 0.66, C 0.977 ± 0.18, D 0.0469 ± 0.41, E 0.792 ± 0.58
